Experimental data published in PMC3201873.

Key:
[1] = target: GyrA–SBP (GyrA fused to a Streptavidin-Binding Peptide) (M. tuberculosis) (UniProt P9WG47); assay: SPR
[2] = target: full-length GyrB from M. tuberculosis (M. tuberculosis); assay: far-Western, overlay or dot blot
Sequence of full-length GyrB from M. tuberculosis (M. tuberculosis) (A5TY73 whole entry): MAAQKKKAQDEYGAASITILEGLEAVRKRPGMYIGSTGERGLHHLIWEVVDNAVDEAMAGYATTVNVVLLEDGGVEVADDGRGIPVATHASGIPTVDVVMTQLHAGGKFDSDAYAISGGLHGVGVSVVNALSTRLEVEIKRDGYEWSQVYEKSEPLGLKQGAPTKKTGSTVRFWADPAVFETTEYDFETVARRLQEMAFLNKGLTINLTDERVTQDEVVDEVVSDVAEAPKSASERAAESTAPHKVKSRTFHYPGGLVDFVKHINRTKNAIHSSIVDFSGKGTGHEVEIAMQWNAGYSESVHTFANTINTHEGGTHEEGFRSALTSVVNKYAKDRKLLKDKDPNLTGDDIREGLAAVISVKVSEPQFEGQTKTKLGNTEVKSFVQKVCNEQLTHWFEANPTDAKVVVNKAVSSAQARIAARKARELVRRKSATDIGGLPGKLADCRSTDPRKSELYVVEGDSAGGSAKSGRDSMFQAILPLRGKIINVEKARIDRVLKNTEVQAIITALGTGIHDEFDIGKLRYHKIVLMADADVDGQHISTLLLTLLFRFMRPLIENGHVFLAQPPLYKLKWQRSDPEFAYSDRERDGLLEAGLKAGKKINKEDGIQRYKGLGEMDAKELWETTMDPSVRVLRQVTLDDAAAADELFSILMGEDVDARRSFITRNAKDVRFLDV

Q: Which Ka [1] does the source give for “full-length GyrB from M. tuberculosis (natural protein)” here?
A: 6.2e+07 M⁻¹

Q: And the koff [1]?
A: 0.00101 s⁻¹

Q: With “GyrA–SBP (GyrA fused to a Streptavidin-Binding Peptide) (from UniProt P9WG47 1-838) (natural protein)” as the substance, how does the fold stronger with negatively supercoiled pBR322 than without DNA [2] read?
A: 9 fold
